Experimental data published in the RNAGym collection of RNA variant scans (doi:10.1073/pnas.2313332121).
Variants at the floor of the assay were thinned out.

B1: TPR 5TU (parent)
chain: GGAUCUUCUCGAUCUAACAAAAAAGACAAAUCUGCCACAAAGCUUGAGAGCAUCUUCGGAUGCAGAGGCGGCAGCCUUCGGUGGCGCGAUAGCGCCAACGUUCUCAACUAUGACACGCAAAACGCGUGCUCCGUUGAAUGGAGUUUAUCAUG

Variants of: B1
Assay: polymerase ribozyme fitness, log enrichment relative to wild type (log ratio); higher = more active; in vitro selection for triplet polymerase activity
Summary of the method: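 Mutant libraries were PCR-built and transcribed for each subunit of a heterodimeric triplet polymerase ribozyme and selected for one round in triplicate at −7 °C, frozen, before gel excision of extended constructs and streptavidin-bead capture. Input and output libraries were Illumina-sequenced, keeping genotypes with ≥10 input reads and ≥1 read per output. Fitness is a logarithmic ratio of genotype to wild-type enrichment, in base 2, using inverse-variance-weighted replicate averages.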

Row | Variant | polymerase ribozyme fitness (log ratio)
1 | G46U G59A A60C | -2.54
2 | A47G U56A U90C G92U U139C | ≤ -4.2
3 | A47C G81C C99A U134G | -4.06
4 | A47C A60G C85A | -2.83
5 | A47C G83A C99U A120U | -3.03
6 | A47C C93A A107G G140U | ≤ -4.2
7 | A47C U127C | -1.6
8 | A47C C51U G58C G70A C96U A106U U151C | ≤ -4.2
9 | A47C G65C G88A C103A | ≤ -4.2
10 | A47C G59A | 0.309
11 | A47C C93U | -1.69
12 | A47C G59C G86A | ≤ -4.2
13 | G46U C57G G70C U78G C87U G88U G143A U144A | ≤ -4.2
14 | G48A C72G | ≤ -4.2
15 | G46U C93U | -0.878
16 | A47U C54A | -1.93
17 | G48A G84A A107C C118G | ≤ -4.2
18 | G46U G59C C85A A115U | -4.01
19 | G46U C72A U90G A97G G100A U104A A107G G124C | ≤ -4.2
20 | G46U G84C C87G A150G | ≤ -4.2
21 | A47C G58C A64U U104C A107G | ≤ -4.2

Row | Variant | polymerase ribozyme fitness (log ratio)
22 | G48A G59C | -0.874
23 | G48A G59A | -0.452
24 | G46A G84U C99A A110C C114U U146C | ≤ -4.2
25 | A47U C54U C93U | -2.08
26 | A47C C85U | -1.58
27 | A47G G84U A106G | -2.24
28 | A47C U55G | 0.183
29 | A47U A97G A98G C116U A150U | 0.886
30 | G48A A60G G84U | -1.73
31 | G48A C108U | ≤ -4.2
32 | G48A A52C C85U | -2.93
33 | G46C C54U C95U C116U C118G | -2.25
34 | A47C G48A G124U | -3.59
35 | A47U U56A G94A C118U A121U | -0.95
36 | G48A C87U A91U C93U | ≤ -4.2
37 | A47U U61A C75A C76U G88U | ≤ -4.2
38 | G48A G86U C95U C123A | -2.89
39 | G46C G50U A52C A60U G80C C95U A150G | ≤ -4.2
40 | G48A U61A A91C C131A U139C | ≤ -4.2
41 | G48A U61A G71A C85G A107U G124U G141U | ≤ -4.2
42 | G48A C57A C125U | -1.74

Row | Variant | polymerase ribozyme fitness (log ratio)
43 | G46U A52C A89U G94A G133C | ≤ -4.2
44 | G46C C75U G88A A106U C116G | ≤ -4.2
45 | G46C G136A | -0.148
46 | G46C U55G G58U | -0.983
47 | A47C A52G G68C A91C | ≤ -4.2
48 | G46C G68A U101G G117U | ≤ -4.2
49 | G46C C99G U101G C105G G124A | -2.54
50 | G46C G50C A89G A107C G152C | ≤ -4.2
51 | G46C G59C G88A | ≤ -4.2
52 | G48A U101G | -2.26
53 | A47U U55A G141U | -1.14
54 | G46A U61G C103A C118G | ≤ -4.2
55 | G46A U53A G59A A66C U90C A91U C108G G133C | ≤ -4.2
56 | A47U G86A | -1.08
57 | A47C A66U C103G | ≤ -4.2
58 | G48A C87U | -0.447
59 | G48A A49G C54U U90G G92U C99U A121C U151A | ≤ -4.2
60 | A47G U55A C63G G84C | ≤ -4.2
61 | A47C U53A G81A U104G | -1.12
62 | G46U C85U A91C | ≤ -4.2
63 | G46C A47G G71A C85U G88C | ≤ -4.2

Row | Variant | polymerase ribozyme fitness (log ratio)
64 | A47C C54U G84A U109G | -1.84
65 | A47C G83C G112C | ≤ -4.2
66 | G48A G133U | -3.81
67 | G48A C85U A97U U130C A150U | ≤ -4.2
68 | A47G C93G U144A | -2.58
69 | A47G A49U G50C C57U A107C A150C | ≤ -4.2
70 | A47U U77C C85A C93G A107U | ≤ -4.2
71 | G46C U102C G136U | ≤ -4.2
72 | G48A C96U A98G | -0.496
73 | G46C G70A C75G A119C | ≤ -4.2
74 | A47G G50U G94U G141C | -2.22
75 | G48A A49C U53A G100A | ≤ -4.2
76 | G48A G59U C87U A97U G136A | -1.99
77 | A47C A49C G65A G84A A113G G141A | ≤ -4.2
78 | G46C C72U G94A U102C A110G C125G A147C | ≤ -4.2
79 | G46C U56A G84A G133C | -2.71
80 | G48A | -0.217
81 | G48C | 0.0216
82 | A47G U53A | -0.375
83 | G46U G59C C96G | -3.41
